In patent US20230312689A1 (NATIONAL UNIVERSITY CORPORATION KUMAMOTO UNIVERSITY, published 2023):

B1: CTMA9-105 (antibody, V domains shown)
VH: EVQLVESGGGLIQPGGSLRLSCAASGITVSSNYMSWVRQAPGKGLEWVSLIYSGGSTYYADSVKGRFTISRDNSKNTLYLQMNSLRAEDTAVYYCARDLEEAGGMDVWGQGTTVTVSS
VL: DIVMTQSPGTLSLSPGERATLSCRASQSVPSIYLAWYQQRPGQAPRLLIYGASSRATGIPDRFSGSGSGTDFTLTISRLEPEDFAVYYCQQYGSSPGTFGQGTKVEIK
B2: CSSA10-121 (antibody, V domains shown)
VH: EVQLVESGGGLIQPGGSLRLSCAASGLTVSRNYMSWVRQAPGRGLEWVSLIYSGGSTYYADSVKGRFTISRDSSKNTLYLQMNSLRAEDTAVYYCARPIVGARAGMDVWGQGTTVTVSS
VL: DIRMTQSPSSLSASVGDRVTITCQASQDISNYLNWYQQKPGKAPKLLIYDASNLETGVPSRFSGSGSGTDFTFTISSLQPEDIATYYCQQYDNLPVTFGQGTRLEIK

Tests used:
[1] = target: SARS-CoV-2 spike protein, European type SD614G (SARS-CoV-2, UniProt P0DTC2 14-1273); assay: cell-based or functional assay
[2] = target: spike protein of SARS-CoV-2 mutant strain B.1.351 (SARS-CoV-2); assay: cell-based or functional assay

| Binder | neutralizing activity (IC50 value), pseudovirus, 293F/ACE2/TMPRSS2 cells [1] [µg/mL] | neutralizing activity (IC50 value), pseudovirus, Caco-2 cells [1] [µg/mL] | neutralizing activity (IC50 value), pseudovirus, Calu-3 cells [1] [µg/mL] | IC50, pseudovirus neutralization, 293FT/DSP/ACE2/TMPRSS2 cells [2] [µg/mL] |
| --- | --- | --- | --- | --- |
| B1 | 0.0035 | 0.00092 | 0.0019 | 0.021 |
| B2 | 0.018 | 0.015 | 0.12 | – |
